Assay results: patent US20140087995A1 (published 2014)
Numbered stars: 1 amine (or outer) side, 2 acyl side, 3 side chain; on linkers, the order of the positions; unused ones are H or OH. Bridge positions count the residues as written; N and C are the ends. Side chains are listed from the residue outwards. Ends that are not written are not given here. * marks the point of attachment. C20 diacid = O=C(O)CCCCCCCCCCCCCCCCCCC(=O)*; γGlu = O=C(O)[C@H](CCC(=O)[*:2])N[*:1]; AEEA = NCCOCCOCC(=O)O

T1: human amylin receptor (amylin 3(a) receptor: human calcitonin receptor plus RAMP-3) (human, UniProt P30988 25-474; O60896 24-148)
T1 construct: whole, on cells; functional assay (II)a used the whole cells; also called hAmylin-R; hAmylinR
T1 sequence (looked up) 1: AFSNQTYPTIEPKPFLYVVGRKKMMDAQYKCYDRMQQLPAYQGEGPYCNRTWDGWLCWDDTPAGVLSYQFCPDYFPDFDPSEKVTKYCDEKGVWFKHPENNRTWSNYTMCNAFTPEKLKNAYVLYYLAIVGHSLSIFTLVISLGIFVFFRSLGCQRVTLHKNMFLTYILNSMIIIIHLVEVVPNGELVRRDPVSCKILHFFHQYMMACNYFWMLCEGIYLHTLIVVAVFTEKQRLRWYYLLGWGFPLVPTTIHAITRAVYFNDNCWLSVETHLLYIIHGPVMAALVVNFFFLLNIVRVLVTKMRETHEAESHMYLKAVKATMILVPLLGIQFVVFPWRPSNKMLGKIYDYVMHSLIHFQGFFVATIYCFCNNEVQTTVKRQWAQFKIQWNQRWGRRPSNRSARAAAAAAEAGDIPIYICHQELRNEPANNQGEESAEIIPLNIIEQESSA
T1 sequence (looked up) 2: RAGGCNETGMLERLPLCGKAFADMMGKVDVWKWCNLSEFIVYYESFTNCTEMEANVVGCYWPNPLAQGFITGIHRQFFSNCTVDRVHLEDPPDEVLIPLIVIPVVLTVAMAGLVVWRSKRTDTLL

T2: human calcitonin receptor (human, UniProt P30988 25-474)
T2 sequence (looked up): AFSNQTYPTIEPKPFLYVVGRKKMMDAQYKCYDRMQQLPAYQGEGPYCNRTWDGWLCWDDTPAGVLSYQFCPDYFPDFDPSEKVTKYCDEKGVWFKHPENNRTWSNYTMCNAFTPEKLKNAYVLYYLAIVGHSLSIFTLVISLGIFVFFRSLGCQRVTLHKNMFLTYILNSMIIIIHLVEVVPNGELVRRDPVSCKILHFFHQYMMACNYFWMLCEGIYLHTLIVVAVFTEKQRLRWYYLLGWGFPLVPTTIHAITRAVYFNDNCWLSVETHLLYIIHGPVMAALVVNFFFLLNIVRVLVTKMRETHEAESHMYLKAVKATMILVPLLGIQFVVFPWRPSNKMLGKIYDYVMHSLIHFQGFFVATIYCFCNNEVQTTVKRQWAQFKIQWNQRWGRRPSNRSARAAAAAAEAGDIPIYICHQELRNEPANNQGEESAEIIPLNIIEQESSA

B1: N^α1-[(4S)-4-carboxy-4-(19-carboxynonadecanoylamino)butanoyl]-[His14,Arg17,Pro21,Pro27,Glu35]-h-amylin (peptide)
peptide: {C20 diacid-γGlu}-KCNTATCATQRLAHFLRHSSPNFGAIPSSTNVGSETY-NH2
modifications: disulfide 2-7
SMILES: CC[C@H](C)[C@H](NC(=O)[C@H](C)NC(=O)CNC(=O)[C@H](Cc1ccccc1)NC(=O)[C@H](CC(N)=O)NC(=O)[C@@H]1CCCN1C(=O)[C@H](CO)NC(=O)[C@H](CO)NC(=O)[C@H](Cc1c[nH]cn1)NC(=O)[C@H](CCCNC(=N)N)NC(=O)[C@H](CC(C)C)NC(=O)[C@H](Cc1ccccc1)NC(=O)[C@H](Cc1c[nH]cn1)NC(=O)[C@H](C)NC(=O)[C@H](CC(C)C)NC(=O)[C@H](CCCNC(=N)N)NC(=O)[C@H](CCC(N)=O)NC(=O)[C@@H](NC(=O)[C@H](C)NC(=O)[C@@H]1CSSC[C@H](NC(=O)[C@H](CCCCN)NC(=O)CC[C@H](NC(=O)CCCCCCCCCCCCCCCCCCC(=O)O)C(=O)O)C(=O)N[C@@H](CC(N)=O)C(=O)N[C@@H]([C@@H](C)O)C(=O)N[C@@H](C)C(=O)N[C@@H]([C@@H](C)O)C(=O)N1)[C@@H](C)O)C(=O)N1CCC[C@H]1C(=O)N[C@@H](CO)C(=O)N[C@@H](CO)C(=O)N[C@H](C(=O)N[C@@H](CC(N)=O)C(=O)N[C@H](C(=O)NCC(=O)N[C@@H](CO)C(=O)N[C@@H](CCC(=O)O)C(=O)N[C@H](C(=O)N[C@@H](Cc1ccc(O)cc1)C(N)=O)[C@@H](C)O)C(C)C)[C@@H](C)O
notes: also called compound 30
B2: N^ε1-[2-[2-[2-[[2-[2-[2-[[(4S)-4-carboxy-4-(19-carboxynonadecanoylamino)butanoyl]amino]ethoxy]ethoxy]acetyl]amino]ethoxy]ethoxy]acetyl]-[Arg17,Pro21,Pro27,Glu35 … (peptide)
peptide: K([AEEA-AEEA-γGlu-C20 diacid])CNTATCATQRLANFLRHSSPNFGAIPSSTNVGSETY-NH2
modifications: disulfide 2-7; N-terminus assumed
SMILES: CC[C@H](C)[C@H](NC(=O)[C@H](C)NC(=O)CNC(=O)[C@H](Cc1ccccc1)NC(=O)[C@H](CC(N)=O)NC(=O)[C@@H]1CCCN1C(=O)[C@H](CO)NC(=O)[C@H](CO)NC(=O)[C@H](Cc1c[nH]cn1)NC(=O)[C@H](CCCNC(=N)N)NC(=O)[C@H](CC(C)C)NC(=O)[C@H](Cc1ccccc1)NC(=O)[C@H](CC(N)=O)NC(=O)[C@H](C)NC(=O)[C@H](CC(C)C)NC(=O)[C@H](CCCNC(=N)N)NC(=O)[C@H](CCC(N)=O)NC(=O)[C@@H](NC(=O)[C@H](C)NC(=O)[C@@H]1CSSC[C@H](NC(=O)[C@@H](N)CCCCNC(=O)COCCOCCNC(=O)COCCOCCNC(=O)CC[C@H](NC(=O)CCCCCCCCCCCCCCCCCCC(=O)O)C(=O)O)C(=O)N[C@@H](CC(N)=O)C(=O)N[C@@H]([C@@H](C)O)C(=O)N[C@@H](C)C(=O)N[C@@H]([C@@H](C)O)C(=O)N1)[C@@H](C)O)C(=O)N1CCC[C@H]1C(=O)N[C@@H](CO)C(=O)N[C@@H](CO)C(=O)N[C@H](C(=O)N[C@@H](CC(N)=O)C(=O)N[C@H](C(=O)NCC(=O)N[C@@H](CO)C(=O)N[C@@H](CCC(=O)O)C(=O)N[C@H](C(=O)N[C@@H](Cc1ccc(O)cc1)C(N)=O)[C@@H](C)O)C(C)C)[C@@H](C)O
notes: also called compound 25
B3: N^ε1-[2-[2-[2-[[(4S)-4-carboxy-4-(19-carboxynonadecanoylamino)butanoyl]amino]ethoxy]ethoxy]acetyl]-[Arg17,Pro21,Pro27,Pro34,His35]-h-amylin (peptide)
peptide: K([AEEA-γGlu-C20 diacid])CNTATCATQRLANFLRHSSPNFGAIPSSTNVGPHTY-NH2
modifications: disulfide 2-7; N-terminus assumed
SMILES: CC[C@H](C)[C@H](NC(=O)[C@H](C)NC(=O)CNC(=O)[C@H](Cc1ccccc1)NC(=O)[C@H](CC(N)=O)NC(=O)[C@@H]1CCCN1C(=O)[C@H](CO)NC(=O)[C@H](CO)NC(=O)[C@H](Cc1c[nH]cn1)NC(=O)[C@H](CCCNC(=N)N)NC(=O)[C@H](CC(C)C)NC(=O)[C@H](Cc1ccccc1)NC(=O)[C@H](CC(N)=O)NC(=O)[C@H](C)NC(=O)[C@H](CC(C)C)NC(=O)[C@H](CCCNC(=N)N)NC(=O)[C@H](CCC(N)=O)NC(=O)[C@@H](NC(=O)[C@H](C)NC(=O)[C@@H]1CSSC[C@H](NC(=O)[C@@H](N)CCCCNC(=O)COCCOCCNC(=O)CC[C@H](NC(=O)CCCCCCCCCCCCCCCCCCC(=O)O)C(=O)O)C(=O)N[C@@H](CC(N)=O)C(=O)N[C@@H]([C@@H](C)O)C(=O)N[C@@H](C)C(=O)N[C@@H]([C@@H](C)O)C(=O)N1)[C@@H](C)O)C(=O)N1CCC[C@H]1C(=O)N[C@@H](CO)C(=O)N[C@@H](CO)C(=O)N[C@H](C(=O)N[C@@H](CC(N)=O)C(=O)N[C@H](C(=O)NCC(=O)N1CCC[C@H]1C(=O)N[C@@H](Cc1c[nH]cn1)C(=O)N[C@H](C(=O)N[C@@H](Cc1ccc(O)cc1)C(N)=O)[C@@H](C)O)C(C)C)[C@@H](C)O
notes: also called compound 58
B4: N^ε1-[2-[2-[2-[[(4S)-4-carboxy-4-(19-carboxynonadecanoylamino)butanoyl]amino]ethoxy]ethoxy]acetyl]-[Arg17,Pro21,Pro27,Pro31,His35]-h-amylin (peptide)
peptide: K([AEEA-γGlu-C20 diacid])CNTATCATQRLANFLRHSSPNFGAIPSSTPVGSHTY-NH2
modifications: disulfide 2-7; N-terminus assumed
SMILES: CC[C@H](C)[C@H](NC(=O)[C@H](C)NC(=O)CNC(=O)[C@H](Cc1ccccc1)NC(=O)[C@H](CC(N)=O)NC(=O)[C@@H]1CCCN1C(=O)[C@H](CO)NC(=O)[C@H](CO)NC(=O)[C@H](Cc1c[nH]cn1)NC(=O)[C@H](CCCNC(=N)N)NC(=O)[C@H](CC(C)C)NC(=O)[C@H](Cc1ccccc1)NC(=O)[C@H](CC(N)=O)NC(=O)[C@H](C)NC(=O)[C@H](CC(C)C)NC(=O)[C@H](CCCNC(=N)N)NC(=O)[C@H](CCC(N)=O)NC(=O)[C@@H](NC(=O)[C@H](C)NC(=O)[C@@H]1CSSC[C@H](NC(=O)[C@@H](N)CCCCNC(=O)COCCOCCNC(=O)CC[C@H](NC(=O)CCCCCCCCCCCCCCCCCCC(=O)O)C(=O)O)C(=O)N[C@@H](CC(N)=O)C(=O)N[C@@H]([C@@H](C)O)C(=O)N[C@@H](C)C(=O)N[C@@H]([C@@H](C)O)C(=O)N1)[C@@H](C)O)C(=O)N1CCC[C@H]1C(=O)N[C@@H](CO)C(=O)N[C@@H](CO)C(=O)N[C@H](C(=O)N1CCC[C@H]1C(=O)N[C@H](C(=O)NCC(=O)N[C@@H](CO)C(=O)N[C@@H](Cc1c[nH]cn1)C(=O)N[C@H](C(=O)N[C@@H](Cc1ccc(O)cc1)C(N)=O)[C@@H](C)O)C(C)C)[C@@H](C)O
notes: also called compound 57
B5: N^ε1-[2-[2-[2-[[(4S)-4-carboxy-4-(19-carboxynonadecanoylamino)butanoyl]amino]ethoxy]ethoxy]acetyl]-[Arg17,Pro21,Pro27,Glu35]-h-amylin (peptide)
peptide: K([AEEA-γGlu-C20 diacid])CNTATCATQRLANFLRHSSPNFGAIPSSTNVGSETY-NH2
modifications: disulfide 2-7; N-terminus assumed
SMILES: CC[C@H](C)[C@H](NC(=O)[C@H](C)NC(=O)CNC(=O)[C@H](Cc1ccccc1)NC(=O)[C@H](CC(N)=O)NC(=O)[C@@H]1CCCN1C(=O)[C@H](CO)NC(=O)[C@H](CO)NC(=O)[C@H](Cc1c[nH]cn1)NC(=O)[C@H](CCCNC(=N)N)NC(=O)[C@H](CC(C)C)NC(=O)[C@H](Cc1ccccc1)NC(=O)[C@H](CC(N)=O)NC(=O)[C@H](C)NC(=O)[C@H](CC(C)C)NC(=O)[C@H](CCCNC(=N)N)NC(=O)[C@H](CCC(N)=O)NC(=O)[C@@H](NC(=O)[C@H](C)NC(=O)[C@@H]1CSSC[C@H](NC(=O)[C@@H](N)CCCCNC(=O)COCCOCCNC(=O)CC[C@H](NC(=O)CCCCCCCCCCCCCCCCCCC(=O)O)C(=O)O)C(=O)N[C@@H](CC(N)=O)C(=O)N[C@@H]([C@@H](C)O)C(=O)N[C@@H](C)C(=O)N[C@@H]([C@@H](C)O)C(=O)N1)[C@@H](C)O)C(=O)N1CCC[C@H]1C(=O)N[C@@H](CO)C(=O)N[C@@H](CO)C(=O)N[C@H](C(=O)N[C@@H](CC(N)=O)C(=O)N[C@H](C(=O)NCC(=O)N[C@@H](CO)C(=O)N[C@@H](CCC(=O)O)C(=O)N[C@H](C(=O)N[C@@H](Cc1ccc(O)cc1)C(N)=O)[C@@H](C)O)C(C)C)[C@@H](C)O
notes: also called compound 26

Tests used:
[1] = target: T1, human amylin receptor (amylin 3(a) …); experiment: SPA competition binding, displacement of 125I-rat amylin, membranes of BHK amylin 3(a)/CRE-luc cells
Description: The binding assay was performed using scintillation proximity assay (SPA) beads (RPNQ0001) from PerkinElmer and cell membranes from the Amylin 3(a)/CRE-luc cells (as described in Assay (II)) were used. Membranes were prepared in the following way; the cells were rinsed with PBS and incubated with Versene for approximately 5 min before harvesting. The cells were flushed with PBS and the cell-suspension was centrifuged for 5 min at 1000 rpm. Cells were homogenized (ultrathurrax) in a buffer containing 20 mM Na-HEPES and 10 mM EDTA (pH 7.4) and centrifuged at 20.000 rpm for 15 min. The resulting pellet was resuspended, homogenized and centrifuged (20.000 rpm, 15 min) in a buffer containing 20 mM Na-HEPES and 0.1 mM EDTA (pH 7.4, buffer 2). The resulting pellet was resuspended in buffer 2 and protein concentration was measured (BCA protein Assay, Pierce). The homogenate was kept cold during the whole procedure. The membranes were kept at −80° C. until use. The assay was performed in a 384 well Optiplate (PerkinElmer) in a total volume of 40 ul. Membranes were mixed with SPA beads. Final concentration of membranes 35 ng/μL final and SPA beads was 0.05 mg/well. Test-compounds were dissolved in DMSO and further diluted in assay buffer (50 mM Hepes, pH 7.4, 1 mM CaCl2, 5 mM MgCl₂, 0.1% OA and 0.02% Tween20). […] The final mixture was incubated with shaking at 400 rpm for 120 min at 25° C. prior to centrifugation (1500 rpm, 10 min). Samples were analyzed on TopCounter™ (Packard). The IC₅₀ was calculated using (one site binding competition analysis) GraphPad Prism5 as a measure of receptor affinity.

[2] = target: T1, human amylin receptor (amylin 3(a) …); experiment: cell-based or functional assay
[3] = target: T2, human calcitonin receptor; experiment: cell-based or functional assay

Binder	IC50 [1] [nM]	hAmylin-R funct. EC50 (pM) [2] [pM]	hCTR funct. EC50 (pM) [3] [pM]	Ratio hCT/hAmylin funct. [2]
B1	0.919	134	1680	–
B2	0.768	217	10000	46.2
B3	0.088	47	1030	21.9
B4	0.115	89	3120	35
B5	0.532	212	6340	29.9
